Source: patent US20110052582A1 (Hoffmann-La Roche, published 2011)
Substitutions are numbered along the chain they refer to. Values belong to the binder of their own block, whether it stands above or below them.

What was measured:
[1] = target: T1, Soluble CDCP1 extracellular domain (CDCP1-ECD) (SEQ ID NO:30) fused to Streptavidin Binding Protein (SBP) (human, UniProt Q9H5V8 30-663); assay: ELISA on captured SBP-CDCP1-ECD, ratio relative to chimeric CUB4 (chHC4)
T1 construct: also called SBP-CDCP1-ECD
T1 sequence: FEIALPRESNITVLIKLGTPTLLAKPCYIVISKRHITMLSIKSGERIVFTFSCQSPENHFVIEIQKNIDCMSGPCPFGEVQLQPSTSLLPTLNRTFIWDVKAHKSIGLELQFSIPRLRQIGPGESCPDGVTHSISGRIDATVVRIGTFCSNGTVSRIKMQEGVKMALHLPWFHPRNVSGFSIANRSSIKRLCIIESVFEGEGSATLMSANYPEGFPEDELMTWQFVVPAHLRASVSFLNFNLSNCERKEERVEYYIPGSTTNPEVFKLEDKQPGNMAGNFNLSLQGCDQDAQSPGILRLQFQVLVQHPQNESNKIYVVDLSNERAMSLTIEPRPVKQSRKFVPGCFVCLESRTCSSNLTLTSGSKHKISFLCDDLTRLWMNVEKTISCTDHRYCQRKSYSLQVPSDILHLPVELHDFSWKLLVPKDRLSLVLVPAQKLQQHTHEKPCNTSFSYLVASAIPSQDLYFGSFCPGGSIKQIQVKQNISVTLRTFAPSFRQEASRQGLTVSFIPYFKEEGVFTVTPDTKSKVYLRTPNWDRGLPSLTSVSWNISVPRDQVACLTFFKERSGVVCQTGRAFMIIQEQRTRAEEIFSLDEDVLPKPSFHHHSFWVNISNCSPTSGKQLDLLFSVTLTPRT
Method in brief: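 Streptavidin plates coated overnight at 2–8° C with SBP-CDCP1-ECD HEK293 supernatant (1:15–1:40). Antibodies, undiluted or 12-step dilution, bound 90 min at room temperature; HRP anti-human IgG 1 h, ABTS read at 405/492 nm, signal expressed relative to chimeric chHC4 reference.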

[2] = target: T2, extracellular-domain-(ECD)-comprising fragment of human CDCP1 of SEQ ID NO: 30 (human, UniProt Q9H5V8 30-663); assay: SPR (Biacore T100), antibody captured, CDCP1 ECD as analyte, 25 C, Langmuir 1:1
T2 construct: also called CDCP1 ECD; CDCP1-ECD
T2 sequence: T1 sequence
Protocol: After conjugation, different anti-CDCP1 antibodies were injected at 25° C. at a flow rate of 5 μL/min, followed by a dilution series (0 nM to 1000 nM) of CDCP1 ECD at 30 μL/min. As running buffer for the binding experiment PBS/0.1% BSA was used. The chip was then regenerated with a 60s pulse of 10 mM glycine-HCl, pH 2.0 solution.
Calculation of thermodynamic parameters (KD, binding constant) and kinetic parameters (kₒₙ rate, koff rate) were calculated using a Langmuir 1:1 binding model.

B1: Humanized CUB4 Antibody No. 91 (antibody, IgG1, V domains shown)
VH: EVQLVESGGGLVQPGGSLRLSCAASGFTFNSYGMSWVRQAPGKGLEWVATISSGGSYKYYVDSVKGRFTISRDNAKNSLYLQMNSLRAEDTAVYYCARHPDYDGVWFAYWGQGTLVTVSS
VL: EIVLTQSPATLSLSPGERATLSCSVSSSVFYVHWYQQKPGQAPRLLIYDTSKLASGIPARFSGSGSGTDFTLTISSLEPEDFAVYYCQQWNSNPPTFGGGTKVEIK
notes: Only variable domains are tied to the antibody; Human constant region, preferably IgG1; also called hHC4-H / hLC-a
relative binding ratio [1]: 0.51
Kd [2]: 5.6 nM
koff [2]: 0.001 s⁻¹
kon [2]: 180000 M⁻¹ s⁻¹
t½ diss. [2]: 11.2 min

B3: hHC4-04 / hLC4-c (antibody, V domains shown)
VH: B1 VH with V5L, A49S, K58T, V61P, A75S, S78T
VL: B1 VL with L4M, L13V, D69E, E78Q, P79S
relative binding ratio [1]: 0.33

B4: hHC4-H / hLC4-c (antibody, V domains shown)
VH: B1 VH
VL: B1 VL with L4M, L13V, D69E, E78Q, P79S
notes: also called Humanized CUB4 Antibody No. 113
relative binding ratio [1]: 0.44

B5: hHC4-07 / hLC4-d (antibody, V domains shown)
VH: B1 VH with V5L, G33A, A49S, K58T, V61P, A75S, S78T, R98K
VL: B1 VL with L4M, L13V, D69E, F70Y, E78Q, P79S
relative binding ratio [1]: 0.04

B6: hHC4-03 / hLC4-c (antibody, V domains shown)
VH: B1 VH with V5L, A49S, T50A, K58T, V61P, A75S, S78T, R98K
VL: B1 VL with L4M, L13V, D69E, E78Q, P79S
relative binding ratio [1]: 0.07

B9: hHC4-07 / hLC4-c (antibody, V domains shown)
VH: B1 VH with V5L, G33A, A49S, K58T, V61P, A75S, S78T, R98K
VL: B1 VL with L4M, L13V, D69E, E78Q, P79S
relative binding ratio [1]: 0.04

B10: hHC4-I / hLC4-b (antibody, V domains shown)
VH: B1 VH with V5L, G33A, A49S, T50A, K58T, V61A, A75S, S78T, R98K
VL: B1 VL with F70Y
relative binding ratio [1]: 0.07

B11: hHC4-H / hLC4-d (antibody, V domains shown)
VH: B1 VH
VL: B1 VL with L4M, L13V, D69E, F70Y, E78Q, P79S
notes: also called Humanized CUB4 Antibody No. 124
relative binding ratio [1]: 0.34

B12: hHC4-03 / hLC4-d (antibody, V domains shown)
VH: B1 VH with V5L, A49S, T50A, K58T, V61P, A75S, S78T, R98K
VL: B1 VL with L4M, L13V, D69E, F70Y, E78Q, P79S
relative binding ratio [1]: 0.07

B15: hHC4-04 / hLC4-d (antibody, V domains shown)
VH: B1 VH with V5L, A49S, K58T, V61P, A75S, S78T
VL: B1 VL with L4M, L13V, D69E, F70Y, E78Q, P79S
relative binding ratio [1]: 0.41

B17: hHC4-d / hLC4-K (antibody, V domains shown)
VH: B1 VH with V5L, A49S, K58T, V61P, A75S, S78T, R98K
VL: B1 VL with S24R, V25A, V32L, L46W
relative binding ratio [1]: 0.52

B19: hHC4-c / hLC4-c (antibody, V domains shown)
VH: B1 VH with K58T, V61P
VL: B1 VL with L4M, L13V, D69E, E78Q, P79S
relative binding ratio [1]: 0.29

B21: hHC4-c / hLC4-d (antibody, V domains shown)
VH: B1 VH with K58T, V61P
VL: B1 VL with L4M, L13V, D69E, F70Y, E78Q, P79S
relative binding ratio [1]: 0.36

B25: Humanized CUB4 Antibody No. 102 (antibody, IgG1, V domains shown)
VH: B1 VH
VL: B1 VL with F70Y
notes: Only variable domains are tied to the antibody; Human constant region, preferably IgG1; also called hHC4-H / hLC-b
relative binding ratio [1]: 0.53
Kd [2]: 5.4 nM
koff [2]: 0.0011 s⁻¹
kon [2]: 190000 M⁻¹ s⁻¹
t½ diss. [2]: 11 min

B27: hHC4-d / hLC4-J (antibody, V domains shown)
VH: B1 VH with V5L, A49S, K58T, V61P, A75S, S78T, R98K
VL: B1 VL with L4M, L21M, S24R, V25A, V32L, L46W, E78Q
relative binding ratio [1]: 0.38

B28: chHC4 / hLC4-f (antibody, V domains shown)
VH: EVQLVESGGDLVKPGGSLKLSCAASGFTFNSYGMSWVRQTPDKRLEWVATISSGGSYTYYPDSVKGRFTISRDNAKNTLYLQMSSLKSEDTAMYYCARHPDYDGVWFAYWGQGTLVTVSA
VL: DIQMTQSPSSLSASVGDRVTITCSVSSSVFYVHWYQQKPGKAPKLLIYDTSKLASGVPSRFSGSGSGTDYTFTISSLQPEDIATYYCQQWNSNPPTFGGGTKVEIK
relative binding ratio [1]: 0.24

The next lines start with the values.

binding result [1]: no binding
B2: hHC4-b / hLC4-c (antibody, V domains shown)
VH: B1 VH with Q13K, G33S, S35N, A49S, T50S, K58I, V61A
VL: B1 VL with L4M, L13V, D69E, E78Q, P79S

relative binding ratio [1]: 0.45
B7: hHC4-d / hLC4-c (antibody, V domains shown)
VH: B1 VH with V5L, A49S, K58T, V61P, A75S, S78T, R98K
VL: B1 VL with L4M, L13V, D69E, E78Q, P79S

relative binding ratio [1]: 0.41
B8: hHC4-d / hLC4-d (antibody, V domains shown)
VH: B1 VH with V5L, A49S, K58T, V61P, A75S, S78T, R98K
VL: B1 VL with L4M, L13V, D69E, F70Y, E78Q, P79S

binding result [1]: no binding
B13: chHC4 / hLC4-I (antibody, V domains shown)
VH: B28 VH
VL: B1 VL with L4M, S24R, V25A, V32L, H33S, L46W, E78Q

binding result [1]: no binding
B14: hHC4-K / hLC4-d (antibody, V domains shown)
VH: B1 VH with Q13K, A49S, T50S, K58I, V61A
VL: B1 VL with L4M, L13V, D69E, F70Y, E78Q, P79S

binding result [1]: no binding
B16: hHC4-b / hLC4-d (antibody, V domains shown)
VH: B1 VH with Q13K, G33S, S35N, A49S, T50S, K58I, V61A
VL: B1 VL with L4M, L13V, D69E, F70Y, E78Q, P79S

binding result [1]: no binding
B18: hHC4-d / hLC4-I (antibody, V domains shown)
VH: B1 VH with V5L, A49S, K58T, V61P, A75S, S78T, R98K
VL: B1 VL with L4M, S24R, V25A, V32L, H33S, L46W, E78Q

relative binding ratio [1]: 0.38
B20: hHC4-d / hLC4-b (antibody, V domains shown)
VH: B1 VH with V5L, A49S, K58T, V61P, A75S, S78T, R98K
VL: B1 VL with F70Y

relative binding ratio [1]: 0.49
B22: hHC4-d / hLC4-L2 (antibody, V domains shown)
VH: B1 VH with V5L, A49S, K58T, V61P, A75S, S78T, R98K
VL: B1 VL with L21M, V32L, L46W

relative binding ratio [1]: 0.8
B23: hHC4-d / hLC4-M (antibody, V domains shown)
VH: B1 VH with V5L, A49S, K58T, V61P, A75S, S78T, R98K
VL: B1 VL with L21M, S24G, V25A, V32L, Q41L, L46W, A59D, S76R

relative binding ratio [1]: 0.34
B24: hHC4-d / hLC4-a (antibody, V domains shown)
VH: B1 VH with V5L, A49S, K58T, V61P, A75S, S78T, R98K
VL: B1 VL

relative binding ratio [1]: 0.56
B26: hHC4-d / hLC4-L (antibody, V domains shown)
VH: B1 VH with V5L, A49S, K58T, V61P, A75S, S78T, R98K
VL: B1 VL with L21M, S24R, V25A, V32L, L46W
